According to the supplement of paper PMC7125110:
± gives the standard error. For some assays here: Variants at the floor of the assay were thinned out.

B1: glmS ribozyme (parent)
chain: AUAAAAGCGCCAGAACUACAGAAAUGUAGUUGACGAGGAGGAGGUUUAUCGAAUUUUCGGCGGAUGCCUCCAAA

Key:
Settings in all cases: with glucosamine-6-phosphate
[1] = variants of: B1; assay: kcat; higher = faster cleavage; RNA array
Outline: (§1)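 Barcoded ribozyme variants, transcribed in situ by E. coli RNA polymerase on sequenced MiSeq chips, were followed via a hybridised Cy3 probe at 37 °C. Glucosamine-6-phosphate ranged from 40 μM to 10 mM in HEPES/KCl/Mg(OAc)2 buffer. kobs came from decay fits to per-tile medians, and kcat and KM from weighted Michaelis–Menten fits.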

[2] = variants of: B1; assay: self-cleavage kobs at 2500 uM GlcN6P; higher = faster cleavage; RNA array
Outline: as §1

[3] = variants of: B1; assay: self-cleavage kobs at 40 uM GlcN6P; higher = faster cleavage; RNA array
Outline: as §1

[4] = variants of: B1; assay: KM; higher = weaker cofactor use; RNA array
Outline: as §1

[5] = variants of: B1; assay: self-cleavage kobs at 160 uM GlcN6P; higher = faster cleavage; RNA array
Outline: as §1

[6] = variants of: B1; assay: self-cleavage kobs at 640 uM GlcN6P; higher = faster cleavage; RNA array
Outline: as §1

[7] = variants of: B1; assay: self-cleavage kobs at 10000 uM GlcN6P; higher = faster cleavage; RNA array
Outline: as §1

Variant | kcat [1] [s⁻¹] | self-cleavage kobs at 2500 uM GlcN6P [2] [s⁻¹] | self-cleavage kobs at 40 uM GlcN6P [3] [s⁻¹] | KM [4] [µM] | self-cleavage kobs at 160 uM GlcN6P [5] [s⁻¹] | self-cleavage kobs at 640 uM GlcN6P [6] [s⁻¹] | self-cleavage kobs at 10000 uM GlcN6P [7] [s⁻¹]
AUAAAAGCGCCAGAACUACAGAAAUGUAGUUGACGAGGAGGAGGUUUAUCGAAUUUUUGGCGGACGCCUCCAAA [C58U U65C] | < 1e-05 | < 1e-05 | – | – | – | – | –
AUAAAAGCGCCAGAACUACAGAAAUGUAGUUGACGAGGAGGAGGUUGAUCGAAUUUUCGGCGGGUGCCUGCAAA [U47G A64G C70G] | 3.26e-05 ± 9.4e-06 | – | < 1e-05 | – | – | – | –
AUAAAAGCGCCAGUACUACAGAAAUGUAGUUGACGAGGAGGAGGUUUAUCGAAUUUUAGGCGGAUGCCUCCAAA [A14U C58A] | 0.000695 ± 4.9e-05 | 0.000346 ± 4.3e-05 | – | 2220 ± 300 | 5.03e-05 ± 1.2e-05 | 0.000162 ± 3.2e-05 | 0.000594 ± 7.5e-05
AUAAAAGCGCCAGAACUACAGAAAUGUAGUUGACGAGGGGGAGGUUUAUCGAAUUUUCGGCGGAUGCAUCCAAA [A39G C68A] | 2.73e-05 ± 9.4e-06 | – | – | – | – | – | –
AUAAAAGCGCCAGAACUACAGAAAUGUAGUUGACGAGGCGGAGGUUUGUCGAAUCUUCGGCGGAUGCCUCCAAA [A39C A48G U55C] | 6.53e-05 ± 4.8e-06 | – | < 1e-05 | – | – | – | 2.91e-05 ± 1.2e-05
AUAAAAGCGCCAGAACUACAGAAAUGUAGUUGACGAGGAGGAGGUUGAUCGAAUUUUCGGUGGAUGCCUCCAAA [U47G C61U] | 2.06e-05 ± 4.9e-06 | – | < 1e-05 | – | – | – | –
AUAAAAGCGCCAGUACUACAGAAAUGUAGUUGACGAGGAGGAGGUUUAUUGAAUUUUCGGCGGAUGCAUCCAAA [A14U C50U C68A] | 3.75e-05 ± 1.4e-05 | – | – | – | – | – | < 1e-05
AUAAAAGCGCCAGUACUACAGAAAUGUAGUUGACGAGGAGGAGGUUUAUCGAAUUUUCGGCGGAUGACUCCAAA [A14U C67A] | 0.00153 ± 0.00048 | 0.00137 ± 0.00031 | 6.24e-05 ± 7.4e-06 | 1240 ± 540 | 0.000172 ± 2.5e-05 | 0.000406 ± 5.4e-05 | 0.00155 ± 0.00023
AUAAAAGCGCCAUAACUACAGAAAUGUAGUUGACGAGGAGGAGGUUUAUGGCAUUUUCGGCGGAUGCCUCCAAA [G13U C50G A52C] | 1.8e-05 ± 3e-06 | – | – | – | – | – | –
AUAAAAGCGCCAGAAAUACAGAAAUGUAGUUGACGAGGAGGAGGUUUAUCGAAUUUUCGGCGGAUCCCUCCAAA [C16A G66C] | 6.9e-05 ± 1.7e-05 | – | < 1e-05 | – | – | – | 2.41e-05 ± 1.1e-05
AUAAAAGCGCCAAAACUACAGAAAUGUAGUUAACGAGGAGGAGGUUUAUCGAAUUUUCGGCGGAUGCCUCCAAA [G13A G32A] | 0.00473 ± 0.0013 | 0.00129 ± 0.00022 | 4.73e-05 ± 7.3e-06 | 4730 ± 1900 | 0.000204 ± 6.5e-05 | 0.000518 ± 0.00011 | 0.00362 ± 0.00047
AUAAAAGCGCCAGAACUACAGAAAUGUAGUUGACGAGCAGGAGGUUUAUUGAAUUUUCGGGGGAUGCCUCCAAA [G38C C50U C61G] | < 1e-05 | – | – | – | – | < 1e-05 | –
